Results as given in US20080248054.

Molecular target: Jun kinase JNK1, Q91Y86
Sequence (Q91Y86 whole entry): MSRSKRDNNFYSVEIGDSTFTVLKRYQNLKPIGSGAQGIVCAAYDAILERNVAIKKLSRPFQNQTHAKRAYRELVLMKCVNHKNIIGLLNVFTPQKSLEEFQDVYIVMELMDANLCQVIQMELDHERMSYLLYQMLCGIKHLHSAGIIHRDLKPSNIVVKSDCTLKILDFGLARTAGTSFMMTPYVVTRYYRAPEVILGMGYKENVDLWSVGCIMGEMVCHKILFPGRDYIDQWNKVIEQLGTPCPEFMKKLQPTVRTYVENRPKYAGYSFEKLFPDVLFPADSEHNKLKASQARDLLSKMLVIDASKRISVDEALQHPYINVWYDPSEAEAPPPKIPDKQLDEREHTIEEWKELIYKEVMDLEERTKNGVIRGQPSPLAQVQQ

B1: murine MINK (Misshapen/NIKs-related kinase) (protein)
chain: MGDPAPARSLDDIDLSALRDPAGIFELVEVVGNGTYGQVYKGRHVKTGQLAAIKVMDVTEDEEEEIKQEINMLKKYSHHRNIATYYGAFIKKSPPGNDDQLWLVMEFCGAGSVTDLVKNTKGNALKEDCIAYICREILRGLAHLHAHKVIHRDIKGQNVLLTENAEVKLVDFGVSAQLDRTVGRRNTFIGTPYWMAPEVIACDENPDATYDYRSDIWSLGITAIEMAEGAPPLCDMHPMRALFLIPRNPPPRLKSKKWSKKFTDFIDTCLIKTYLSRPPTEQLLKFPFIRDQPTERQVRIQLKDHIDRSRKKRGEKEETEYEYSGSEEEDDSHGEEGEPSSIMNVPGESTLRREFLRLQQENKSNSEALKQQQQLQQQQQRDPEAHIKHLLHQRQRRIEEQKEERRRVEEQQRREREQRKLQEKEQQRRLEDMQALRREEERRQAEREQEYKRKQLEEQRQSERLQRQLQQEHAYLKSLQQQQQQQQLQKQQQQQQQILPGDRKPLYHYGRGINPADKPAWAREVEERARMNKQQNSPLAKRSQAGAGPEPPISQASPSPPGPLSQTPPMQRPVEPQEGPHKSLVAHRVPLKPYAAPVPRSQSLQDQPTRNLAAFPASHDPDPAAVPTPTATPSARGAVIRQNSDPTSEGPGPSPNPPSWVRPDNEAPPKVPQRTSSIATALNTSGAGGSRPAQAVRASNPDLRRSDPGWERSDSVLPASHGHLPQAGSLERNRNRVGASTKLDSSPVLSPGNKAKPEDHRSRPGRPADFVLLKERTLDEAPKPPKKAMDYSSSSEEVESSEEEEEEGDGEPSEGSRDTPGGRSDGDTDSVTTMVVHDVEEISGTQPSYGGGTMVVQRTPEEERSLLLADSNGYTNLPDVVQPSHSPTENSKGQSPPTKDGGSDYQSRGLVKAPGKSSFTMFVDLGIYQPGGSGDTIPITALVGGEGGRLDQLQFDVRKGSVVNVNPTNTRAHSETPEIRKYKKRFNSEILCAALWGVNLLVGTENGLMLLDRSGQGKVYGLIGRRRFQQMDVLEGLNLLITISGKRNKLRVYYLSWLRNKILHNDPEVEKKQGWTTVGDMEGCGHYRVVKYERIKFLVIALKNSVEVYAWAPKPYHKFMAFKSFADLPHRPLLVDLTVEEGQRLKVIYGSSAGFHAVDVDSGNSYDIYIPVHIQSQITPHAIIFLPNTDGMEMLLCYEDEGVYVNTYGRIIKDVVLQWGEMPTSVAYICSNQIMGWGEKAIEIRSVETGHLDGVFMHKRAQRLKFLCERNDKVFFASVRSGGSSQVYFMTLNRNCIMNW
levels of phosphorylated JNK in DP thymocytes after CD3/CD28 ligation (Western blot, anti-phospho-JNK1): MINK-deficient DP thymocytes express markedly reduced levels of phosphorylated JNK compared with control mice after CD3/CD28 ligation
